This passage reports EC50 results from patent publication CN115536746A (NANJING SANHOME PHARMACEUTICAL CO LTD, dated 2022).

In test [1] the target is T1, 人源CRTAM蛋白全长 on CHO-K1-hCRTAM cells (human, UniProt O95727 18-393).
T1 construct: also called 细胞表面hCRTAM
T1 sequence: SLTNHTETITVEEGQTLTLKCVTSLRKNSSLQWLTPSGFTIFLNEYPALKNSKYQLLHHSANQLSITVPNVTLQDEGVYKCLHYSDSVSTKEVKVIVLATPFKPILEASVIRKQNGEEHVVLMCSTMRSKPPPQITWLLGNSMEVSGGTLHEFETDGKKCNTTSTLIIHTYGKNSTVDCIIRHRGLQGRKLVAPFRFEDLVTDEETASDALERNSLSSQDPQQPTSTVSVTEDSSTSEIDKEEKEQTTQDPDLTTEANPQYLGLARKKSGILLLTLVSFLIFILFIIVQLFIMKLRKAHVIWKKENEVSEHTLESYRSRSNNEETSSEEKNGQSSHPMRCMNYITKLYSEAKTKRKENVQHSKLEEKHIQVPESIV
Description: flow cytometry on CHO-K1-hCRTAM cells. (In general: In flow cytometry, cells or beads pass a laser one at a time.)

The target of test [2] is T2, 猴源CRTAM蛋白全长 on CHO-K1-cCRTAM cells (猴源 (食蟹猴, cynomolgus monkey), UniProt O95727 18-393 (human entry)).
T2 construct: also called 细胞表面食蟹猴CRTAM
T2 chain: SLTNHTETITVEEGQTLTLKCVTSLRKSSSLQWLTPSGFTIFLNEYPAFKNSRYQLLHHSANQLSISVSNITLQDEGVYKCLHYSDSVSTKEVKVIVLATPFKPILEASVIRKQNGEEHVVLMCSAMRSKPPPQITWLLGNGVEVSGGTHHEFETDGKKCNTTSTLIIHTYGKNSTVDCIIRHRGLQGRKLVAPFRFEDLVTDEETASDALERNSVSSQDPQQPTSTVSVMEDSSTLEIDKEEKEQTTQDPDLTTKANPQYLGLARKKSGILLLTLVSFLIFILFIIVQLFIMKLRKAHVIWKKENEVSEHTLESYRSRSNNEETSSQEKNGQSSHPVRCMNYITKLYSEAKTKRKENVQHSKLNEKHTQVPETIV
Briefly: flow cytometry on CHO-K1-cCRTAM cells.

B1: HuC110-34 (antibody, V domains shown)
VH: QVQLVQSGAEVKKPGASVKVSCKASGYTFTNNDINWVKQAPGQRLEWIGWIYPRDGSTQYNEKFRGRATITVDTSASTAYMELSSLRSEDTAVYFCARGLVDYWGQGTLVTVSS
VL: DVVMTQSPDSLAVSLGERATINCRSSQSLVHSNKNTYLHWYLQKPGQPPKLLIYKVSNRFSGVPDRFSGSGSGTDFTLTISSLQAEDVAVYYCSQSTRVPWTFGGGTKLEIK
notes: also called HuC110-34-biotin; 抗CRTAM人源化抗体HuC110-34
The term EC50 denotes the concentration that produces a half-maximal response. Higher therefore signals lower potency in that assay. For B1, the 50% effective concentration (EC50) in test [1] stood at 0.0417 µg/mL; in test [2], 0.0507 µg/mL.

B2: HuC124-42 (antibody, V domains shown)
VH: QVQLVQSGAEVKKPGSSVKVSCKASGYSFSNYWIEWVRQAPGQGLEWIGEILPGVPTIYYNAKFKDRVTFTADKSTSTAYMELSSLRSEDTAVYYCSRDPWFAYWGQGTLVTVSA
VL: EIVLTQSPATLSVSPGERATFSCRASQSIGTSLHWFQQKPGQAPRLLIKYASQSISGIPARFSGSGSGTEFTLTISSVQSEDFAVYYCQQSNNWPFTFGGGTKLEIK
notes: also called HuC124-42-biotin; 抗CRTAM人源化抗体HuC124-42
Molecule B2 returned an EC50 in test [2] of 0.0904 µg/mL.

B3: HuC94-31 (antibody, V domains shown)
VH: EVQLLESGGGLVQPGGSLRLSCAASGFTFSTSAMSWVRQAPGKGLEWVATISSGGDYTYYSDNVKGRFTISRDNSKSTLYLQMNSLRAEDTAVYYCTLGYDEADYWGQGSLLTVSS
VL: DIQMTQSPSSLSASVGDRVTITCRASQDISNYLNWYQQKPGKAPKLLIYYTSRLHSGVPSRFSGSGSGTDYTFTISSLQPEDIATYYCQQGDTFPWTFGGGTKLEIK
notes: also called HuC94-31-biotin; 抗CRTAM人源化抗体HuC94-31
In test [2], B3 came in with an EC50 of 0.035 µg/mL.

B4: 人源化抗体5A11 (WO2019/086878) (antibody, human IgG1, lambda, V domains shown)
VH: EVQLVESGGGLVQPGGSLKLSCAASGFTFSDAAMYWVRQASGKGLEWVARIRTKTNNYAAHYVESVKGRFTVSRDDSKNTVYLQMNSLKTEDTAMYYCTSVPQGTQDYWGQGTLVTVSS
VL: SYELTQPSSVSVSPGQTARITCSGDVLSKRYAQWSQQKPGQAIVSVIYKDSERPSGIPERFSGSSSGTTATLTISGAQVEDEADYYCLSTYADDNLPVFGGGTKLTVLG
notes: also called 阳性对照抗体; 对照抗体
The molecule B4 showed an EC50 in test [1] of 0.0607 µg/mL.
